# Reference: paper PMC10189049
# Target: TCR Vβ3.1 on CH7C17 Jurkat cells
# Experiment: fluorescence microscopy of labelled protein on cells
substance,measurement,value
Staphylococcal Enterotoxin B (from UniProt P01552 28-266) (natural protein),MFI at 5 minutes,427
